In article PMC6915604 one finds retention rate of relative enzyme activity of the KG-HE complex recovered in a magnetic field, after usage cycles 1 to 3 (93.8%, 82.5%, 56.3%); pH 4.5, 45 °C, 20 min data, which are given here for 1 substance.

This experiment concerns the target β-glucosidase with N-terminal K-coil and N-terminal His-tag (KG).

The substance “human H chain ferritin with C-terminal E-coil, without the sequence of a His-tag (HE)” registered a retention rate of relative enzyme activity of the KG-HE complex recovered in a magnetic field, after usage cycles 1 to 3 (93.8%, 82.5%, 56.3%); pH 4.5, 45 °C, 20 min of 93.8%.
